From patent publication US20190100588A1 (VISTERRA, published 2019)

Legend:
[1] = biological target: T1, recombinant CD138 extracellular domain (soluble CD138) (human, UniProt P18827 23-250); assay: ELISA (FIG. 18A)
T1 construct: also called soluble CD138 extracellular domain; biotinylated CD138
T1 sequence: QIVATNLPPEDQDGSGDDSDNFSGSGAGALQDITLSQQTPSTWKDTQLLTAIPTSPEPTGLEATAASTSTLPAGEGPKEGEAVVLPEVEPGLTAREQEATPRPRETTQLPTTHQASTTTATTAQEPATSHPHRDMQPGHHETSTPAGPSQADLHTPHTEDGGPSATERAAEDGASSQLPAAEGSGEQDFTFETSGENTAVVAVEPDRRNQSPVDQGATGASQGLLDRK

Peptide 2a [2] = biological target: T2, Peptide 2a (human); assay: ELISA (FIG. 18B)
T2 construct: also called Pep2a
T2 peptide: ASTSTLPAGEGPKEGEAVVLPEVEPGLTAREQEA

[3] = biological target: T3, cell surface CD138 (human CD138) (human, UniProt P18827 23-310); assay: flow cytometry, U266 cells, afucosylated antibody
T3 construct: whole, on cells; also called membrane CD138
T3 sequence (looked up): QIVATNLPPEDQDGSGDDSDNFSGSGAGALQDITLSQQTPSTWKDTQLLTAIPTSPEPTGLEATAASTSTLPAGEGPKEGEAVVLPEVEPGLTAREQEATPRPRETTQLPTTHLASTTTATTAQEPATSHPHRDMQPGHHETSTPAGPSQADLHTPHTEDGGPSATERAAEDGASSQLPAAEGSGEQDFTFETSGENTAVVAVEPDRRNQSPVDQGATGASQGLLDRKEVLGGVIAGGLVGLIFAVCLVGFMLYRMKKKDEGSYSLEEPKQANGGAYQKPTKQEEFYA
Method: (§1) Binding of anti-CD138 antibodies to CD138 was tested by flow cytometry binding assay. Multiple myeloma cell lines RPMI 8226 (ATCC) and U266 (ATCC) were grown in RPMI1640 with 10% FBS. On the day of experiment, 0.25×10⁶ cells were washed with FACS buffer (PBS+0.5% BSA) and incubated with dilution series of anti-CD138 antibodies (starting 10 ug/ml) or hybridoma supernatants (starting with undiluted supernatant) for 30 min at 4° C. followed by incubation with goat-anti-human/mouse conjugated APC antibodies (BioLegend) for 30 min at 4° C. Fluorescence was detected using flow cytometer.
The afucosylated antibody variants were then tested for capacity to induce ADCC, as described above.

Pep6 [4] = biological target: T4, Pep6 (human); assay: ELISA (FIG. 18C)
T4 construct: also called Peptide 6; Peptide-6
T4 peptide: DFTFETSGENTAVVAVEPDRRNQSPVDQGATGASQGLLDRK

[5] = biological target: T3, cell surface CD138 (human CD138); assay: form of CD138 not named
Pep4 = biological target: T5, Pep4 (human); assay: ELISA, coated peptide
T5 construct: also called Peptide 4
T5 peptide: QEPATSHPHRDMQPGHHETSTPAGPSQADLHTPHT

Pep5 = biological target: T6, Pep5 (human); assay: ELISA, coated peptide
T6 construct: also called Peptide 5
T6 peptide: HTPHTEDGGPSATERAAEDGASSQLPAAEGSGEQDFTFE

Pep6 [6] = biological target: T4, Pep6; assay: ELISA, coated peptide
Pep3 = biological target: T7, Pep3 (human); assay: ELISA, coated peptide
T7 construct: also called Peptide 3
T7 peptide: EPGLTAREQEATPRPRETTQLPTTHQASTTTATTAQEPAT

[7] = biological target: T8, rCD138 (recombinant CD138) (human, UniProt P18827 23-254, limits assumed); assay: ELISA, coated rCD138
T8 sequence (looked up): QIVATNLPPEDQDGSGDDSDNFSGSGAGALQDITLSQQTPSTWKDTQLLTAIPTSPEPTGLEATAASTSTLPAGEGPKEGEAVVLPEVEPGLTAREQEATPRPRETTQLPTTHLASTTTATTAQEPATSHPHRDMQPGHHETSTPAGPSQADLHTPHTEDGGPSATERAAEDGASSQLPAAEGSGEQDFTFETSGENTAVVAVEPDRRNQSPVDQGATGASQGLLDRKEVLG

[8] = biological target: T3, cell surface CD138 (human CD138); assay: flow cytometry, U266 cells
Method: as §1

[9] = biological target: T3, cell surface CD138 (human CD138); assay: flow cytometry, RPMI 8226 cells
Method: as §1

Peptide 2a [10] = biological target: T2, Peptide 2a; assay: peptide binding ELISA
Method: (§2) As above, the monoclonal antibodies were tested for binding to a series of CD138 peptides in four-fold serial dilutions starting at 1 μg/mL. […] HRP-conjugated anti-human IgG-Fc antibody (1:5000 dilution) was used for detection. Antibody B-B4 was also tested as a reference. […] Reference antibody B-B4 only bound to Peptide 2a.

Pep6 [11] = biological target: T4, Pep6; assay: peptide binding ELISA
Method: as §2

Binder	ELISA O.D. (Pep4) [O.D.]	ELISA O.D. (Pep5) [O.D.]	ELISA O.D. (Pep6 [6]) [O.D.]	ELISA O.D. (Pep3) [O.D.]	ELISA O.D. [7] [O.D.]	% cells Positive [8] [%]	% cells Positive [9] [%]	also measured
antibody 2510 (antibody, human IgG1, V domains shown) VH: QVQLHQPGTSLVKPGASVKLSCKASGYNFSSYYMHWVKQRPGQGLEWIGTIHPSDSTTNYNQKFKGKATLTVDKSSRTAYMQLNSLTFEDSAVYYCANFVYWGQGTSVTVSS VL: DIVITQDELSNPVTSGDSVSISCRSSKSLLYKDGKTYLNWFLQRPGQSPQLLIYVVSTRASGVSDRFSGSGSGTDFTLEISRVKAEDVGVYYCQQLVEYPYTFGGGTKLEIK	–	–	–	–	–	–	–	binding result [1]: binds; binding result (Peptide 2a [2]): binds; binding result [3]: binds; binding result (Pep6 [4]): binds
antibody 2910 (antibody, V domains shown) VH: QVQLHQPGTSLVKPGASVKLSCKASGYTFSSYYMHWVKQRPGQGLEWIGTIHPSDSTTNYNQKFKGKATLTVDKSSRTAYMQLNSLTFEDSAVYYCANFVYWGQGTSVTVSS VL: DIVITQDELSNPVTSGDSVSISCRSSKSLLYKDGKTYLNWFLQRPGQSPQLLIYVVSTRASGVSDRFSGSGSGTDFTLEISRVKAEDVGVYYCQQLVEYPYTFGGGTKLEIK	–	–	–	–	–	–	–	binding result [3]: binds
antibody 2710 (antibody, V domains shown) VH: QVQLHQPGTSLVKPGASVKLSCKASGYTFSSYYMHWVKQRPGQGLEWIGTIHPSDSTTNCNQKFKGKATLTVDKSSRTAYMQLNSLTFEDSAVYYCANFVYWGQGTSVTVSS VL: DIVITQDELSNPVTSGDSVSISCRSSKSLLYKDGKTYLNWFLQRPGQSPQLLIYVVSTRASGVSDRFSGSGSGTDFTLEISRVKAEDVGVYYCQQLVEYPYTFGGGTKLEIK	–	–	–	–	–	–	–	binding result [5]: binds
antibody 2610 (antibody, V domains shown) VH: QVQLHQPGTSLVKPGASVKLSCKASGYSFSSYYMHWVKQRPGQGLEWIGTIHPSDSTTNCNQKFKGKATLTVDKSSRTAYMQLNSLTFEDSAVYYCANFVYWGQGTSVTVSS VL: DIVITQDELSNPVTSGDSVSISCRSSKSLLYKDGKTYLNWFLQRPGQSPQLLIYVVSTRASGVSDRFSGSGSGTDFTLEISRVKAEDVGVYYCQQLVEYPYTFGGGTKLEIK	–	–	–	–	–	–	–	binding result [1]: binds; binding result (Peptide 2a [2]): binds; binding result [5]: binds; binding result (Pep6 [4]): binds
antibody 619 (antibody, V domains shown, Mouse hybridoma-derived anti-CD138 antibody) VH: QIQLVQSGPELKKPGETVKISCKASGYTFTTYGMSWVKQAPGKGLKWMGWINTYSGVPTYADDFKGRFAFSLETSASTAYLQINNLKNEDTATYFCAREGSTMVTRYYFDYWGQGTTLTVSS VL: DIVMTQAAPSVPVTPGESVSISCRSSKSLLHSNGNTYLYWFLQRPGQSPQVLIYRMSNLASGVPDRFSGSGSGTAFTLRISRVEAEDVGVYYCMQHLESPYTFGGGTKLEIK	0.066	0.066	1.37	0.067	0.882	3.7	85	–
antibody 616 (antibody, V domains shown, Mouse hybridoma-derived anti-CD138 antibody) VH: QIHLVQSGPELKKPGETVRISCKASGYTFTTYGMSWVKQAPGKALKWMGWINTYSGVPTYADDFKGRFAFSLETSASTAYLQINNLKNEDTATYFCTREGSTMVTRYYFDYWGQGTTLTVSS VL: DIVMTQAAPSVPVTPGESVSISCRSSKSLLHSNGNTYLYWFLQRPGQSPQLLIYRMSNLASGVPDRFSGSGSGTAFTLRISRVEAEDVGVYHCMQHLESPYTFGGGTTLEIK	0.065	0.061	1.62	0.063	1.18	6.1	18.3	–
antibody 623 (antibody, V domains shown, Mouse hybridoma-derived anti-CD138 antibody) VH: QIQLVQSGPELKKPGETVKISCKASGYTFTTYGMSWVKQAPGKGLKWMGWINTYSGVPTYADDFKGRFAFSLETSASTAYLQINNLKNEDTATFFCAREGSTMVTRYYFDYWGQGTTLTVSS VL: DIVMTQAAPSVPVTPGESVSISCRSSKSLLHSNGNTYLYWFLQRPGQSPQLLIYRMSNLASGVPDRFSGSGSGTAFTLRISRVEAEDVGVYYCMQHLEYPSTFGGGTKLEIK	0.082	0.08	1.67	0.086	0.803	7	63.8	–
antibody 1409 (antibody, human IgG1, V domains shown, Chimeric monoclonal antibody, murine variable regions and human IgG1) VH: EVQLVESGGGLVQPKGSLKLSCAASGFTFNTYAMHWVRQAPGKGLEWVARIRSKSSNYATYYADSVKDRFTISRDDSQSMLYLQMNNLKTEDTAMYYCVRELRLRYAMDYWGQGTSVTVSS VL: DILMTQTPLTLSVTIGQPASISCKSSQSLLYTNGKTYLNWLLQRPGQSPKRLIYLVSKLDSGVPDRFSGSGSGTDFTLKISRVEAEDLGVYYCLQSTHFPLTFGAGTKLELK	–	–	–	–	–	–	–	binding result (Peptide 2a [10]): binds; binding result (Pep6 [11]): binds
antibody 604 (antibody, V domains shown, Mouse hybridoma-derived anti-CD138 antibody) VH: QVQLQQPGAELVKPGASVKVSCKASGYNFINYWMHWVKQRPGQGLEWIGRIHPSDSYTNYNQKFKGKATLTVDKSSSTAYMQLSSLTSEDSAVYYCASPISTLYWGQGTTLTVSS VL: not shown	0.058	0.067	0.939	0.058	0.61	96	82.5	–
antibody 617 (antibody, V domains shown, Mouse hybridoma-derived anti-CD138 antibody) VH: QVQLQLPGAELVKPGASVKVSCKASAYTFTSYWMHWVKQRPGQGLEWIGRIHPSDSDTNYNQNFKGKATLTVDKSSNTAYMQLSSLTSEDSAVYYCATGFSFWGQGTLVTVSA VL: DIVMTQSHKFMSTSVGDRVSITCKASQDVSTTVAWYQQKPGQSPKLLIYSASYRYTGVPDRFTGSGSGTDFTFTISSVQAEDLAVYYCQQHYSTRPTFGGGTKLEIK	0.091	0.066	0.809	–	–	–	–	–
antibody 603 (antibody, V domains shown, Mouse hybridoma-derived anti-CD138 antibody) VH: QVQVQVPGAELVKPGASVKVSCKASGYTFTSYWMHWMKKRPGQGLEWIGRIHPSDSDTNYNQNFKGKATLTVDKSSSTAYMQLSSLTSEDSAVYFCATGFSFWGQGTLVTVSA VL: not shown	0.051	0.053	0.863	0.047	0.585	95.8	81.4	–
antibody 624 (antibody, V domains shown, Mouse hybridoma-derived; afucosylated form used for ADCC) VH: QVQVQLPGAELVKPGASVKVSCKASGYTFTSYWMHWVKKRPGQGLEWIGRIHPSDSDTNYNQNFKGKATLTVDKSSSTAYMQLTSLTSEDFAVYYCSTGFSFWGQGTLVTVSA VL: not shown	0.069	0.066	1.68	0.069	1.52	96.7	89.3	–
